What all share (assay): Kinase Profiling Assay
What all share (format): biochemical
Common to all, as to conditions: peptide 100 μM

One test addresses T1, ASK1(h) (Homo sapiens, UniProt Q99683).
T1 sequence (Q99683 1-1374): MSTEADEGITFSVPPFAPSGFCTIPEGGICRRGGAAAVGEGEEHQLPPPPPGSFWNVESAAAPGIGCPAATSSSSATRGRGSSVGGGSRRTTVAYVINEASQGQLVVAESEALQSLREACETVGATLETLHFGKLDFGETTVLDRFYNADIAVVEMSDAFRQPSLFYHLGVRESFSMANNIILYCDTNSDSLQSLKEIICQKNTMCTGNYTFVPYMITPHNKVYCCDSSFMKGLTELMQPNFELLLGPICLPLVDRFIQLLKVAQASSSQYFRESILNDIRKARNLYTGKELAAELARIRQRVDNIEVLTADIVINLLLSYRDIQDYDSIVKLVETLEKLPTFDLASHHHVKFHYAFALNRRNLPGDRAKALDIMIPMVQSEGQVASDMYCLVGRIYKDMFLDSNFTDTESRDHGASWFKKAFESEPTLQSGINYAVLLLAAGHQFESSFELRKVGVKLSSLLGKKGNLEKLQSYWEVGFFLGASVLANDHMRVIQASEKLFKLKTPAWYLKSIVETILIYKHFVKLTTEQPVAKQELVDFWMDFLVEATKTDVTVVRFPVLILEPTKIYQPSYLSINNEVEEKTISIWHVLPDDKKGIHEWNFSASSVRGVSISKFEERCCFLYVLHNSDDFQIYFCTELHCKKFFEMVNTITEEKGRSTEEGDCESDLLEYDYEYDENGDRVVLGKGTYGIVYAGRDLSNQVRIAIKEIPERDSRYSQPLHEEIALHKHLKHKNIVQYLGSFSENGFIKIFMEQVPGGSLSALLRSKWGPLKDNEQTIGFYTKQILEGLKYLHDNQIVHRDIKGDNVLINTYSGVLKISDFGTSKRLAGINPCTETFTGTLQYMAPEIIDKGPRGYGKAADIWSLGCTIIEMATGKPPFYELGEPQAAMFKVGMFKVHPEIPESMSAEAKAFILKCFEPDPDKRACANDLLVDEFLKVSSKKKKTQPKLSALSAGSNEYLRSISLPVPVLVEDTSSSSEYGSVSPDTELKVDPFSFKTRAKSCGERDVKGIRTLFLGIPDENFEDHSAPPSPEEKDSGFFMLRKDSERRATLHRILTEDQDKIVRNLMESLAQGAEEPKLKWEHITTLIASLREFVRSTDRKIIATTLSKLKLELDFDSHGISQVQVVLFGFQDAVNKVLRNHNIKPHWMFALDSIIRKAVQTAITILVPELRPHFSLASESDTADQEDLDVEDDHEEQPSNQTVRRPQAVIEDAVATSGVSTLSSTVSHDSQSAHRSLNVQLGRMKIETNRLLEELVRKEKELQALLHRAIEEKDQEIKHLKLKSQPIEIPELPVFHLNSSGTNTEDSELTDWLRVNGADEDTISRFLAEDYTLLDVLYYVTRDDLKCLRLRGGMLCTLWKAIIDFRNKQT
The procedure, abridged:
(§1)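 In this 266-kinase specificity panel, every measurement was duplicated. Transfer of labeled phosphate from ATP to a cationic substrate was quantified after the substrate adhered to an anionic filter membrane and was scintillation-counted, then related to a full-activity control.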

For a further test, the target named is CDK2/cyclinA(h) (Homo sapiens, UniProt P24941). The procedure, abridged:
as §1

In a further test the target is T2, DYRK2(h) (Homo sapiens, UniProt Q92630).
T2 sequence (Q92630 1-601): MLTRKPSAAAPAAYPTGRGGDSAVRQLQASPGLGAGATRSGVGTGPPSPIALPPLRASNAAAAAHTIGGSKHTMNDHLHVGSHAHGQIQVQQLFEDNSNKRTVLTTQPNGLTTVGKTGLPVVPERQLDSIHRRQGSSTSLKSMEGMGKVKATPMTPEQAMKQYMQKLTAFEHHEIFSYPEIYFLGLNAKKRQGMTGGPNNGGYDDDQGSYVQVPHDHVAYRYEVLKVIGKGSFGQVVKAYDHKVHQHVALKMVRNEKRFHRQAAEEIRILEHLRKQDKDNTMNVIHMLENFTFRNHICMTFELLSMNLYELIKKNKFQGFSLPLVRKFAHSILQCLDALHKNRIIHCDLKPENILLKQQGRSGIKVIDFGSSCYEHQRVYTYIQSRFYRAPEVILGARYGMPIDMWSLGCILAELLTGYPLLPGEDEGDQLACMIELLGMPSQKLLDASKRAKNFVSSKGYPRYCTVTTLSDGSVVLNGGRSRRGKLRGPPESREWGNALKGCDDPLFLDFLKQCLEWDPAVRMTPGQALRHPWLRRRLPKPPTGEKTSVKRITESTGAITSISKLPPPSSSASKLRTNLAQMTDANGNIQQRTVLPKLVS
The procedure, abridged: as §1

The target of a further test is Fes(h) (Homo sapiens, UniProt P07332). The procedure, abridged: as §1
The next test has as its target Fgr(h) (Homo sapiens, UniProt P09769). The procedure, abridged:
as §1

A further test concerns the target Pim-1(h) (Homo sapiens, UniProt P11309). The procedure, abridged: as §1

The source of these data is patent US20150258192A1, “COMPOSITIONS AND METHODS FOR PREVENTING OR TREATING CHRONIC LUNG ALLOGRAFT DYSFUNCTION (CLAD) AND IDIOPATHIC PULMONARY FIBROSIS (IPF)” (priority 2014, published 2015).

Chain of Pim-1(h) (P11309 whole entry): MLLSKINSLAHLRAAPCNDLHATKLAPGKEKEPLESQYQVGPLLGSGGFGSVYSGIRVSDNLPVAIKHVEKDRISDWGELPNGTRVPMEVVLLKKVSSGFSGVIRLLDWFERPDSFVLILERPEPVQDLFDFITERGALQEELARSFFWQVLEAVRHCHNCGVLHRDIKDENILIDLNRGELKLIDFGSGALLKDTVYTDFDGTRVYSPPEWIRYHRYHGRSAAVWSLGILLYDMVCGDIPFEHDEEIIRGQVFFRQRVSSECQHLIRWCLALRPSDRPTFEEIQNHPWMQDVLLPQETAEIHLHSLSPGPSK
Chain of Fes(h) (P07332 whole entry): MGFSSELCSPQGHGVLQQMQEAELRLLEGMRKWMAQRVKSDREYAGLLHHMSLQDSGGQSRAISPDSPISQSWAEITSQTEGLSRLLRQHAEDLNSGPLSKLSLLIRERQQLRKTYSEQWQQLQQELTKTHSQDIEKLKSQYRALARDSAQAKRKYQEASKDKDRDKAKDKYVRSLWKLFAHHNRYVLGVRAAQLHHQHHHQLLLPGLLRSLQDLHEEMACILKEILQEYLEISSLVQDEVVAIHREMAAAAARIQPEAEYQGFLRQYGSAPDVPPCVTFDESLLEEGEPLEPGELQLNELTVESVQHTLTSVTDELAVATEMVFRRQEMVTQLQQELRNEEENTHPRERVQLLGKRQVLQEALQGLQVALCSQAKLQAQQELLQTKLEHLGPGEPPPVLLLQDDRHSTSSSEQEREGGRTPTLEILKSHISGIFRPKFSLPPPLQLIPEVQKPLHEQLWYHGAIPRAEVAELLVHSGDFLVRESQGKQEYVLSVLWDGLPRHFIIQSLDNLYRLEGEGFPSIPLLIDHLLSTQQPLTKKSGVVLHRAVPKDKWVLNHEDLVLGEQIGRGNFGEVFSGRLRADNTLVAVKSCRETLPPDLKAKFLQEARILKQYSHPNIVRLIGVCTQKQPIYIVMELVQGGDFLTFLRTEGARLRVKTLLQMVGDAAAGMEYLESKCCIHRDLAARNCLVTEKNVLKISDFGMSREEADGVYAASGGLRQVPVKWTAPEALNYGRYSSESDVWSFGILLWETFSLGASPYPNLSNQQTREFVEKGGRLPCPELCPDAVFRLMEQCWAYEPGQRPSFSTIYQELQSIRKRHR

For the sequence KAFAKLAARLYRKALARQLGVAA [MMI-0400], the “% activity” value in the test with ASK1(h) was 69%; with CDK2/cyclinA(h), 92%; with DYRK2(h) it was 195%; with Fes(h), 16%; in the test with Fgr(h), 47%; with Pim-1(h), 7%.
FAKLAARLYRKALARQLGVAA [MMI-0300]: the “% activity” value is 80% with ASK1(h); 86% in the test with CDK2/cyclinA(h); 155% in the test with DYRK2(h); 20% with Fes(h); 60% with Fgr(h); 8% with Pim-1(h).
“HRRIKAWLKKIKALARQLGVAA (Mammal) [MMI-0500]”: the “% activity” value is given as -4% with ASK1(h); 87% with CDK2/cyclinA(h); 127% with DYRK2(h); 23% with Fes(h); 0% with Pim-1(h).
On to “YARAAARQARAKALNRQLGVA (Mammal) [MMI-0200]”, for which the “% activity” value in the test with ASK1(h) is 101%; with DYRK2(h), 142%; with Fes(h), 74%; in the test with Fgr(h), 71%; with Pim-1(h) it was 18%.
